For experiment [1], the target named is T1, Fcab wt (non-randomized Fc fragment) expressed on yeast (human, UniProt P0DOX5 218-449 = IgG part).
T1 construct: also called Fcab-wt expressing cells; not shown: N-terminal Aga2 display fusion (and CH1 in vector pYD1dXFc)
The experiment is described as follows: FACS of yeast-displayed Fcab wt, CD64 staining.

For the next experiment, the target named is T2, wild type Fcab (human, UniProt P0DOX5 218-449 = IgG part, limits assumed).
T2 construct: also called Fcab wt; wtFcab
In words: SPR, Fcab (10 ug/ml) captured on Protein A chip (3000 RU), human soluble CD64 at 5 ug/ml as analyte. Here is the method:
Association with the neonatal Fc receptor (FcRn) was measured by adding 10 μg/ml Fcab to a Biacore CM5 chip coupled to 5000 response units (RU) of recombinant human FcRn at pH=6.0. The dissociation of Fcab from FcRn was tested at pH=7.4. […] Finally, human soluble CD64 at 5 μg/ml was added.
Background: In SPR one partner is held on a chip, and binding of the other changes the refractive index at the surface.

The target in experiment [2] is T3, Human soluble Her-2 (Bender Med Systems, Austria) (human, UniProt P04626 23-652, biotinylated (sulfo-LC-LC-biotin) when used for yeast FACS staining; unlabelled in ELISA and SPR).
T3 construct: extracellular domain; given only as 'human soluble Her-2'; also called recombinant antigen Her2 (Bendermedsystems); Her2-biotin
In words: ELISA, human soluble Her-2 coated at 2 ug/ml, Fcab titrated, anti-Fc CH2-HRP detection. Here is the method: Human soluble Her-2 (Bender Med Systems, Austria) was coated to plastic at 2 μg/ml. After washing and blocking unspecific binding sites, increasing concentrations of Fcabs were added. To detect Her-2 bound Fcabs, anti-Fc CH2 domain specific monoclonal antibodies which were conjugated to horse radish peroxidase (Serotec) were added.
(In general: In an ELISA, binding on a coated surface is turned into a signal by an enzyme label.)

In experiment [3] the target is T4, Her-2 on Her-2 over-expressing human breast cancer cell lines SKBR3 and Calu-3 (human, UniProt P04626 23-1255).
T4 construct: whole, on cells; also called SKBR3 cells; Calu-3 cells
The experiment is described as follows: FACS on Her-2 over-expressing SKBR3 cells, anti-human Fc-PE detection. On the procedure: (§1) Antigen binding was also determined by SPR. Biacore CM5 chips were coated with different amounts of human soluble Her-2 followed by addition of increasing concentrations of Fcabs. The affinity (KD) of the Fcabs was calculated from the resulting binding curves after fitting using the software BiaEval. […] Antigen binding was also assessed by FACS using the Her-2 over-expressing human breast cancer cell lines SKBR3 and Calu-3. 1×10⁵ cells were incubated with increasing concentrations of Fcabs for 60 minutes on ice. Then, unbound antibodies were removed by centrifugation and washing. Cell bound Fcabs were detected by incubation with anti-human Fc specific antibodies conjugated to phycoerythrin (Sigma) for 60 minutes on ice. After washing the cells, the intensity of fluorescence on the cell surface was measured in a FACS Calibur instrument (Beckton Dickinson).

Experiment [4] has as its target T3, Human soluble Her-2 (Bender Med …). The experiment is described as follows: assay not stated; told in the yeast display FACS selection and affinity maturation section (biotinylated Her2).
The target of experiment [5] is T4, Her-2 on Her-2 over-expressing human …. The experiment is described as follows: cell-based or functional assay.
Experiment [6] concerns the target T3, Human soluble Her-2 (Bender Med …). In words: SPR, Biacore CM5 chip coated with human soluble Her-2, Fcab as analyte, BiaEval fit. On the procedure: as §1

B1: human soluble CD64 (receptor, UniProt P12314 16-292, looked up)
chain: QVDTTKAVITLQPPWVSVFQEETVTLHCEVLHLPGSSSTQWFLNGTATQTSTPSYRITSASVNDSGEYRCQRGLSGRSDPIQLEIHRGWLLLQVSSRVFTEGEPLALRCHAWKDKLVYNVLYYRNGKAFKFFHWNSNLTILKTNISHNGTYHCSGMGKHRYTSAGISVTVKELFPAPVLNASVTSPLLEGNLVTLSCETKLLLQRPGLQLYFSFYMGSKTLRGRNTSSEYQILTARREDSGLYWCEAATEDGNVLKRSPELELQVLGLQLPTPVWFH
notes: extracellular domain; Printed as 'human soluble CD64'; also called human CD64 (R&D Systems)
With B1, the binding result (in experiment [1]; with wild type Fcab) was “binds” each time.

B2: y-Her.C2.P4.2-9 (designed binder)
chain: EPKSCDKTHTCPPCPAPELLGGPSVFLFPPKPKDTLMISRTPEVTCVVVDVSHEDPEVKFNWYVDGVEVHNAKTKPREEQYNSTYRVVSVLTVLHQDWLNGKEYKCKVSNKALPAPIEKTISKAKGQPREPQVYTLPPSRDEYLHGDVSLTCLVKGFYPSDIAVEWESNGQPENNYKTTPPVLDSDGSFFLYSKLTVARYSPRMLRWAHGNVFSCSVMHEALHNHYTQKSLSLSPGK
A word on the EC50: it is the concentration needed to bring the measured effect to its halfway point. Read a low EC50 as an effect from little substance. The molecule B2 yielded an EC50 in experiment [2] of 4.3 nM.

B3: EF3-17 (designed binder)
chain: EPKSCDKTHTCPPCPAPELLGGPSVFLFPPKPKDTLMISRTPEVTCVVVDVSHEDPEVKFNWYVDGVEVHNAKTKPREEQYNSTYRVVSVLTVLHQDWLNGKEYKCKVSNKALPAPIEKTISKAKGQPREPQVYTLPPSRDEYLHGDVSLTCLVKGFYPSDIAVEWESNGQPENNYKTTPPVLDSDGSFFLYSKLTVARHSRTMWRWGHGNVFSCSVMHEALHNHYTQKSLSLSPGK
Consider B3, for which the EC50 amounted to 4.7 nM in experiment [2] and 1.3 nM in experiment [3].

B4: H10-03-6 (designed binder)
chain: EPKSCDKTHTCPPCPAPELLGGPSVFLFPPKPKDTLMISRTPEVTCVVVDVSHEDPEVKFNWYVDGVEVHNAKTKPREEQYNSTYRVVSVLTVLHQDWLNGKEYKCKVSNKALPAPIEKTISKAKGQPREPQVYTLPPSRDEYLYGDVSLTCLVKGFYPSDIAVEWESNGQPENNYKTTPPVLDSDGSFFLYSKLTVPRHSARMWRWAHGNVFSCSVMHEALHNHYTQKSLSLSPGK
notes: also called H10-03-6 clone
Broadly, the Kd is a measure of binding affinity in units of concentration. High values mean weaker binding, low ones tighter binding. For B4, the EC50 in experiment [4] came to 18.9 nM; in experiment [2], 4.8 nM; in experiment [3], 10.3 nM. In addition, the “ADCC: SKBR3 cell killing by NK cells (7-AAD/CFSE double positive cells), EC50” value in experiment [5] turned out to be 1.1 nM. Moreover, binding in experiment [6] was characterised by a dissociation constant (Kd) of 8.6 nM.

B5: ABEFs0101 (designed binder)
chain: EPKSCDKTHTCPPCPAPELLGGPSVFLFPPKPKDTLMISRTPEVTCVVVDVSHEDPEVKFNWYVDGVEVHNAKTKPREEQYNSTYRVVSVLTVLHQDWLNGKEYKCKVSNKALPAPIEKTISKAKGQPREPQVYTLPPSRDEYLSADVSLTCLVKGFYPSDIAVEWESNGQPENNYKTTPPVLDSDGSFFLYSKLTVARYSPSMWRWGHGNVFSCSVMHEALHNHYTQKSLSLSPGK
notes: If read literally (148-197) a Val would be doubled
For B5, in experiment [5], the “ADCC: SKBR3 cell killing by NK cells (7-AAD/CFSE double positive cells), EC50” value was 1 nM. Moreover, the EC50 stood at 16.1 nM in experiment [2] and 5.2 nM in experiment [3].

B6: y-Her.C2.P4.2-19 (designed binder)
chain: EPKSCDKTHTCPPCPAPELLGGPSVFLFPPKPKDTLMISRTPEVTCVVVDVSHEDPEVKFNWYVDGVEVHNAKTKPREEQYNSTYRVVSVLTVLHQDWLNGKEYKCKVSNKALPAPIEKTISKAKGQPREPQVYTLPPSRDEYRSGEVSLTCLVKGFYPSDIAVEWESNGQPENNYKTTPPVLDSDGSFFLYSKLTVARYSPRMLRWAHGNVFSCSVMHEALHNHYTQKSLSLSPGK
In turn, B6 registered an EC50 in experiment [2] of 93 nM.

B7: y-Her.C2.P4.2-3 (designed binder)
chain: EPKSCDKTHTCPPCPAPELLGGPSVFLFPPKPKDTLMISRTPEVTCVVVDVSHEDPEVKFNWYVDGVEVHNAKTKPREEQYNSTYRVVSVLTVLHQDWLNGKEYKCKVSNKALPAPIEKTISKAKGQPREPQVYTLPPSRDEYASNTVSLTCLVKGFYPSDIAVEWESNGQPENNYKTTPPVLDSDGSFFLYSKLTVARYSPRMLRWAHGNVFSCSVMHEALHNHYTQKSLSLSPGK
B7: it took 463 nM to reach a half-maximal effect in experiment [2] (EC50).

B8: y-Her.C2.P4.2-4 (designed binder)
chain: EPKSCDKTHTCPPCPAPELLGGPSVFLFPPKPKDTLMISRTPEVTCVVVDVSHEDPEVKFNWYVDGVEVHNAKTKPREEQYNSTYRVVSVLTVLHQDWLNGKEYKCKVSNKALPAPIEKTISKAKGQPREPQVYTLPPSRDEYSDGDVSLTCLVKGFYPSDIAVEWESNGQPENNYKTTPPVLDSDGSFFLYSKLTVARYSPRMLRWAHGNVFSCSVMHEALHNHYTQKSLSLSPGK
The molecule B8 yielded a concentration for a half-maximal effect (EC50) in experiment [2] of 370 nM.

B9: H561G3M1G4 (designed binder)
chain: EPKSCDKTHTCPPCPAPELLGGPSVFLFPPKPKDTLMISRTPEVTCVVVDVSHEDPEVKFNWYVDGVEVHNAKTKPREEQYNSTYRVVSVLTVLHQDWLNGKEYKCKVSNKALPAPIEKTISKAKGQPREPQVYTLPPSRDEFFTYWVSLTCLVKGFYPSDIAVEWESNGQPENNYKTTPPVLDSDGSFFLYSKLTVDRRRWTAGNVFSCSVMHEALHNHYTQKSLSLSPGK
Regarding B9, the midpoint of the response in experiment [2], the EC50, lay at 263 nM. In experiment [6], this molecule registered a Kd of 7.5 nM.

Values taken from US20110046355A1 (F STAR BIOTECHNOLOGISCHE FORSCHUNGS UND ENTWICKLUNGSGES M B …, published 2011).
